What all share (assay): cryo-EM structure
Data set [1] has as its target major capsid protein gp23* (cleaved form of gp23) of bacteriophage T4 (bacteriophage T4).
Data set [2] deals with the molecule itself.
Data set [3] deals with the molecule itself. The source holds these as a separate data set.

Where two headings read alike, the source gives them in different places.

A word on the stoichiometry N: it is a count of units in the complex or per binding partner. In data set [1], “major capsid protein gp23* (cleaved form of gp23) of bacteriophage T4 (natural protein)” gave a stoichiometry N of 6.

B1: Soc (small outer capsid protein) of bacteriophage T4 (natural protein, UniProt P03715 1-80, looked up)
chain: MASTRGYVNIKTFEQKLDGNKKIEGKEISVAFPLYSDVHKISGAHYQTFPSEKAAYSTVYEENQRTEWIAANEDLWKVTG
B1: the “stoichiometry N” value in “cryo-EM structure [2]” came out at 3.

B2: vertex protein gp24* (cleaved form of gp24) of bacteriophage T4 (natural protein, UniProt P19896 11-427, looked up)
chain: STTTNSNSIGRPNLVALTRATTKLIYSDIVATQRTNQPVAAFYGIKYLNPDNEFTFKTGATYAGEAGYVDREQITELTEESKLTLNKGDLFKYNNIVYKVLEDTPFATIEESDLELALQIAIVLLKVRLFSDAASTSKFESSDSEIADARFQINKWQTAVKSRKLKTGITVELAQDLEANGFDAPNFLEDLLATEMADEINKDILQSLITVSKRYKVTGITDSGFIDLSYASAPEAGRSLYRMVCEMVSHIQKESTYTATFCVASARAAAILAASGWLKHKPEDDKYLSQNAYGFLANGLPLYCDTNSPLDYVIVGVVENIGEKEIVGSIFYAPYTEGLDLDDPEHVGAFKVVVDPESLQPSIGLLVRYALSANPYTVAKDEKEARIIDGGDMDKMAGRSDLSVLLGVKLPKIIIDE
For B2, the “stoichiometry N” value in “cryo-EM structure [3]” was found to be 5.

These data come from paper PMC9546572 (Proceedings of the National Academy of Sciences of the …, 2022).
